Reference: patent US20220010006A1 (BEIJING HANMI PHARMACEUTICAL, published 2022)
Blank lines part the entries; values can stand above or below the molecule they belong to.

Key:
[1] = biological target: transmembrane TNFα on Jurkat/tmTNFα cells; experiment: cell-based or functional assay
[2] = biological target: T1, mouse IL-17A (mouse, UniProt Q62386 26-158); experiment: ELISA, plate-coated antigen 1 µg/mL, anti-human IgG-HRP
T1 construct: also called recombinant mouse IL-17A
T1 sequence (looked up): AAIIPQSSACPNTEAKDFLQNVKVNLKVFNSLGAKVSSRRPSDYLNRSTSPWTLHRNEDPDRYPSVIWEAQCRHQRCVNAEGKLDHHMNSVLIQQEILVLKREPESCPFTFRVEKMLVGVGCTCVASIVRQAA
Protocol: (§1) Detailed procedures are as follows: the recombinant mouse TNFα, rat TNFα, mouse IL-17A and rat IL-17A (all purchased from Sino Biological, P. R. China) were coated on wells of a 96-well high-adsorption ELISA plate using a carbonate buffer solution of pH 9.6 at a coating concentration of 1 μg/mL and in a coating amount of 100 μL per well. The coating was performed at 4° C. overnight. The wells were washed with PBST 5 times. The wells were blocked with 300 μL per well of PBST containing 1% BSA, and incubated for 1 hour at 25° C., and washed with PBST 5 times. […] The wells were washed with PBST 5 times. Then, horseradish peroxidase-labeled anti-human IgG antibody (Chemicon, cat #AP 309P) 1:10000 diluted in PBST containing 1% BSA was added in an amount of 100 μL per well, and incubated at 25° C. for 1 hour. The wells were washed with PBST 5 times. The chromogenic substrate TMB was added in an amount of 100 μL per well, and color developed at room temperature for 10 minutes. Color development was terminated by adding 1M H₂SO₄ in an amount of 100 μL per well. The absorbance at 450 nm was read on a microplate reader.

[3] = biological target: T2, rat IL-17A (rat, UniProt Q61453 18-150, limits assumed); experiment: as above
T2 construct: also called recombinant rat IL-17A
T2 sequence (looked up): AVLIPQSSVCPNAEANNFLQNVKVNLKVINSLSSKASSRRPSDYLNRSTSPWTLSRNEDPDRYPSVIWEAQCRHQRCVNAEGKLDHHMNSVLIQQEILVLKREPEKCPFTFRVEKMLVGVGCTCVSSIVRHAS
Protocol: as §1

- Apoptosis ratio (%) of Jurkat/tmTNFα cells, Enbrel 1 µg/mL [1]: 19%
- Apoptosis ratio (%) of Jurkat/tmTNFα cells, Enbrel 10 µg/mL [1]: 21%
Molecule: Enbrel® (Fc fusion)

- Apoptosis ratio (%) of Jurkat/tmTNFα cells, Humira 1 µg/mL [1]: 29.9%
- Apoptosis ratio (%) of Jurkat/tmTNFα cells, Humira 10 µg/mL [1]: 28.2%
Molecule: Humira® (antibody)

- EC50 [2]: 0.027 nM
- EC50 [3]: 0.032 nM
B1: anti-mouse IL-17A monoclonal antibody (1D10 variable regions) (antibody, V domains shown)
VH: QVQLKESGPGLVQPSQTLSLTCTVSGFSLTNYYVHWVRQPPGKGLEWMGGVWNDGDTSYNSVLRSRLSITRDTSKSQVLLKMSSLQTEDTATYYCAREGREGFVGYYVMDAWGPGASVTVSS
VL: DIQMTQSPSFLSASVGERVTLSCKASQNINKYLDWFQQKLGEAPKLLIYNADNLHTGIPSRFSGSGSFSDFILTISSLQPEDDATYFCLQRESWPYTFGAGTKLELK
notes: Parental control of BH1654; variable regions from U.S. Pat. No. 7,846,443, 1D10; also called The anti-mouse IL-17A monoclonal antibody; anti-mouse IL-17A mAb
